Data set [1] has as its target T1, SSB1 (human, UniProt Q9BQ15 1-211). As to the kind of experiment: EMSA; ED Fig. 2a ssDNA taken as (dT)48, the only listed ssDNA oligo; EMSA: 100 nM Cy3 probe, 20 mM Tris-HCl pH 7.5, 50 mM NaCl, 5 mM MgCl2, 0.2 mM EDTA, 1 mM DTT, on ice 30 min; 6% native PAGE, 0.5x TBE, cold room. Particulars: protein: recombinant; label: 3' Cy3.
The target in data set [2] is T1, SSB1. The data set is described as follows: EMSA; EMSA: 100 nM Cy3 probe, 20 mM Tris-HCl pH 7.5, 50 mM NaCl, 5 mM MgCl2, 0.2 mM EDTA, 1 mM DTT, on ice 30 min; 6% native PAGE, 0.5x TBE, cold room. Particulars: protein: recombinant; blunt.

T1 sequence (Q9BQ15 whole entry): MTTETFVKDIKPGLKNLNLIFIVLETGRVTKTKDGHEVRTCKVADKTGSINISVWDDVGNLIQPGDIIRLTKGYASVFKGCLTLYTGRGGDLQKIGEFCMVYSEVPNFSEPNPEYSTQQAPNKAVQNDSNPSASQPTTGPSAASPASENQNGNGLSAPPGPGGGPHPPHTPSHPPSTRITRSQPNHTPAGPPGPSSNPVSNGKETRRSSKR

As for TTTTTTTTTTTTTTTTTTTTTTTTTTTTTTTTTTTTTTTTTTTTTTTT (ssDNA) [oligo (dT)48], the binding result with SSB1 [1] was “binds”.

B1: Blunt-end dsDNA (30 bp) random (dsDNA)
DNA 1: GAGCTACCAGCTACCCCGTATGTCAGAGAG
DNA 2: CTCTCTGACATACGGGGTAGCTGGTAGCTC
For the molecule B1, in the data set with SSB1 [2], the binding result is “no binding”.

The values are drawn from publication PMC10511320, “R-loop-dependent promoter-proximal termination ensures genome stability”.
